Measurements reported in article doi:10.1101/2025.08.27.672337, “Cyclin-dependent kinase-like 5 (CDKL5) binds to talin and is anchored at the postsynaptic density via direct interaction with PDZ domains” (bioRxiv, 2025).
“And” between values parts separate entries of the source, which are not always exact repeats. Equal entries are not always repeated. Blank lines part the entries; values can stand above or below the binder they belong to. Where no end group is shown, it is not given here. maleimide‑fluorescein = Maleimide-fluorescein dye, coupled to a cysteine thiol

Key:
Conditions in all cases: both partners purified
[1] = biological target: T1, SHANK3 PDZ domain (mouse, UniProt Q4ACU6 570-664); experiment: fluorescence polarisation; dye-labelled peptide against a twofold serial dilution of the protein in PBS (10 mM Na2HPO4, 1.8 mM KH2PO4, pH 7.4, 137 mM NaCl, 2.7 mM KCl), 25°C; one-site total binding fit; triplicate
T1 construct: SHANK3 PDZ domain, mouse, UniProt Q4ACU6, residues 570-664; Expressed from pET151; His-tag removed with AcTEV protease
T1 sequence (looked up): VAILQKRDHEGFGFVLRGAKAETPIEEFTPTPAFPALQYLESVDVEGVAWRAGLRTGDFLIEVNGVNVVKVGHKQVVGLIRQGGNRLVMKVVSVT

[2] = biological target: T2, SHANK2 PDZ domain (mouse, UniProt Q80Z38 247-340); experiment: as above
T2 construct: SHANK2 PDZ domain, mouse, UniProt Q80Z38, residues 247-340; Expressed from pET151; His-tag removed with AcTEV protease; 15N-labelled for NMR
T2 sequence (looked up): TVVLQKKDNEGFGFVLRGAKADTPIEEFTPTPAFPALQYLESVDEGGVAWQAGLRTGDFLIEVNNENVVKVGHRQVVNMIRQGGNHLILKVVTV

[3] = biological target: T3, PSD-95 PDZ3 domain (human, UniProt P78352 302-402); experiment: as above
T3 construct: PSD-95 (postsynaptic density protein 95) PDZ3, human, UniProt P78352, residues 302-402; codon optimised synthetic gene; Expressed from pET151; His-tag removed with AcTEV protease; 15N-labelled for NMR; also called PDZ3 of PSD-95

[4] = biological target: T4, PSD-95 PDZ2 domain (human, UniProt P78352 155-249); experiment: as above
T4 construct: PSD-95 (postsynaptic density protein 95) PDZ2, human, UniProt P78352, residues 155-249; codon optimised synthetic gene; Expressed from pET151; His-tag removed with AcTEV protease; 15N-labelled for NMR; also called PDZ2 of PSD-95

[5] = biological target: T5, SHANK1 PDZ domain (mouse, UniProt D3YZU1 654-762); experiment: as above
T5 construct: SHANK1 PDZ domain, mouse, UniProt D3YZU1, residues 654-762; Expressed from pET151; His-tag removed with AcTEV protease; 15N-labelled for NMR
T5 sequence (looked up): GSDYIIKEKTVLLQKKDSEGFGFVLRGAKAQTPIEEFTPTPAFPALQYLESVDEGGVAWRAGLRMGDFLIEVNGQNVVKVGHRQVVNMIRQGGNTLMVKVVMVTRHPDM

[6] = biological target: T2, SHANK2 PDZ domain; experiment: NMR titration; 15N-HSQC of 15N-labelled protein at 150 µM with peptide added (1:0.5 to 1:5 molar ratios); 12 mM NaH2PO4, 6 mM Na2HPO4, pH 6.5, 50 mM NaCl, 2 mM DTT, 5% D2O, 298K
[7] = biological target: T3, PSD-95 PDZ3 domain; experiment: as above
[8] = biological target: T4, PSD-95 PDZ2 domain; experiment: as above
[9] = biological target: T5, SHANK1 PDZ domain; experiment: as above
[10] = biological target: T6, talin1 R8 (mouse, UniProt P26039 1461-1580); experiment: as above
T6 construct: talin1 rod domain R8, mouse, UniProt P26039, residues 1461-1580; Expressed from pET151; His-tag removed with AcTEV protease; 15N-labelled for NMR; also called talin R8; R8 rod domain of talin

[11] = biological target: T7, talin1 R7R8 (mouse, UniProt P26039 1357-1659); experiment: as above
T7 construct: talin1 rod domains R7R8, mouse, UniProt P26039, residues 1357-1659; Expressed from pET151; His-tag removed with AcTEV protease; 15N-labelled for NMR; also called talin R7R8

[12] = biological target: T7, talin1 R7R8; experiment: fluorescence polarisation; dye-labelled peptide against a twofold serial dilution of the protein in PBS (10 mM Na2HPO4, 1.8 mM KH2PO4, pH 7.4, 137 mM NaCl, 2.7 mM KCl), 25°C; one-site total binding fit; triplicate

T7 sequence (P26039 1357-1659): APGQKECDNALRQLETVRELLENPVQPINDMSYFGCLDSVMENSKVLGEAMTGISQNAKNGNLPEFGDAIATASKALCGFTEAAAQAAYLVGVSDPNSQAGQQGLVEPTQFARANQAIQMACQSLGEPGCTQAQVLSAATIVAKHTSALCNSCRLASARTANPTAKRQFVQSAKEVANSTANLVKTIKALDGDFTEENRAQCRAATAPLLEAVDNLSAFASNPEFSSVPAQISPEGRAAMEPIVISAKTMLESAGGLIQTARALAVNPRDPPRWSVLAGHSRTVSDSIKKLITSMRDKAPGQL
T3 sequence (P78352 302-402): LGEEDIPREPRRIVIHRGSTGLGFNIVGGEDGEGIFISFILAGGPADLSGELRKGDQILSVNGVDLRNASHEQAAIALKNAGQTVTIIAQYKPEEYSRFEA
T4 sequence (P78352 155-249): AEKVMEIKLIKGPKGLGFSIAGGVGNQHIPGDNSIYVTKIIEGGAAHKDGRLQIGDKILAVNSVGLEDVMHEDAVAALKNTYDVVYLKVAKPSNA
T6 sequence (P26039 1461-1580): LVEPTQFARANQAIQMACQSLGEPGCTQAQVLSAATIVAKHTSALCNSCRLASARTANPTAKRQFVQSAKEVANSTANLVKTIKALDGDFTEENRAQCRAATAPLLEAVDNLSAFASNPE

B3: CDKL5^213-234 peptide (NMR) (peptide)
peptide: CGESEIDQLFTIQKVLGPLPSEQ
notes: single non-native N-terminal cysteine with which the synthetic peptides were designed; source: synthetic peptide (GLBiochem, Shanghai)
binding result [10]: binds
binding result [11]: binds

B4: CDKL5^213-234 peptide, dye-labelled for FP (peptide)
peptide: C(maleimide‑fluorescein)GESEIDQLFTIQKVLGPLPSEQ
notes: single non-native N-terminal cysteine for coupling the dye; source: synthetic peptide (GLBiochem, Shanghai)
fold weaker affinity than CDK1^206-223 with talin1 R7R8 [12]: 2.5 fold

Second part, the binder after the results:

Kd [1]: 8.6 µM
Kd [2]: 5.2 µM
Kd [3]: 40.7 µM
Kd [4]: 31.3 µM
Kd [5]: 8.5 µM and 7.6 µM
B1: CDKL5-1^941-960 peptide, fluorescein-labelled (peptide)
peptide: C(maleimide‑fluorescein)YNRTNRSRMPNLNDLKETAL
notes: single non-native N-terminal cysteine for coupling the dye; ends in -ETAL (957-960); also called CDKL5-1 C-terminal tail peptide; CDKL5 isoform 1 C-terminus; source: synthetic peptide (GLBiochem, Shanghai)

binding result [6]: binds
binding result [7]: binds
binding result [8]: binds
binding result [9]: binds
B2: CDKL5-1^941-960 peptide, unlabelled (peptide)
peptide: CYNRTNRSRMPNLNDLKETAL
notes: single non-native N-terminal cysteine with which the synthetic peptides were designed; ends in -ETAL (957-960); Used unlabelled in NMR; also called CDKL5-1 C-terminal tail peptide; CDKL5-1 peptide; source: synthetic peptide (GLBiochem, Shanghai)
